Tests used:
[1] = biological target: T1, human VLA4-Fc (alpha4-Fc/beta1-Fc heterodimer) (human); test: SPR (BIACORE), VLA4-Fc captured by anti-human IgG, 1 mM MnCl2, 1:1 Langmuir; standard BIACORE assay, first preparation (Table 5A); activated VLA4 (Mn2+)
T1 construct: Soluble heterodimer from CHO cells, Protein A purified; also called VLA-Fc
Method: All BIACORE analyses were performed on a BIACORE 2000 system or BIACORE 3000 system (GE Healthcare) at room temperature (RT, 25° C.), HBS-P buffer (10 mM Hepes (pH 7.4), 150 mM NaCl, 0.005% surfactant P20) supplemented with 1 mM MnCl₂ (HBS-P-Mn) was used as the flow buffer for all experiments except where indicated.
The kinetic 2D-VCAM-1 assay measures binding kinetics of a dimeric ligand (e.g., VLA-Fc fusion protein or LPAM-1-Fc fusion protein) coated to sensor chips and monomeric analyte (e.g., 2D-VCAM-1 variant polypeptides) in the mobile phase. Goat anti-human IgG antibody (Jackson ImmunoResearch, Catalog No. 105-005-098) was immobilized on CM-5 sensor chips (GE Healthcare, Catalog No. BR-1000-14) according to the manufacturer's protocol. Antibody was diluted to 30 μg/ml in immobilization buffer (10 mM sodium acetate, pH 5.0 (GE Healthcare, Catalog No. BR-1003-51)). […] Un-reacted sites were quenched with 35 μl of 1 M ethanolamine-HCl pH 8.5 (GE Healthcare, Catalog No. BR-1000-50). This procedure typically yielded 15,000 response units (RU) of coupled antibody. VLA4-Fc or LPAM-1-Fc, prepared as described in Examples 3 and 4, respectively, were bound to antibody-coated sensor chips by injection of 20 μl of ligand solution (20 μg/ml protein in HBS-P-Mn buffer at a flow rate of 10 μl/min). Ligand capture levels were typically 200-300 RU. […]

[2] = biological target: T1, human VLA4-Fc (alpha4-Fc/beta1-Fc …); test: SPR (BIACORE), retest with new polypeptide preparations and new VLA4-Fc; retested with new polypeptide preparations and new VLA-Fc ligand (Table 5B)
Method: The kinetic 2D-VCAM-1 assay measures binding kinetics of a dimeric ligand (e.g., VLA-Fc fusion protein or LPAM-1-Fc fusion protein) coated to sensor chips and monomeric analyte (e.g., 2D-VCAM-1 variant polypeptides) in the mobile phase. Goat anti-human IgG antibody (Jackson ImmunoResearch, Catalog No. 105-005-098) was immobilized on CM-5 sensor chips (GE Healthcare, Catalog No. BR-1000-14) according to the manufacturer's protocol. Antibody was diluted to 30 μg/ml in immobilization buffer (10 mM sodium acetate, pH 5.0 (GE Healthcare, Catalog No. BR-1003-51)). […] Un-reacted sites were quenched with 35 μl of 1 M ethanolamine-HCl pH 8.5 (GE Healthcare, Catalog No. BR-1000-50). This procedure typically yielded 15,000 response units (RU) of coupled antibody. VLA4-Fc or LPAM-1-Fc, prepared as described in Examples 3 and 4, respectively, were bound to antibody-coated sensor chips by injection of 20 μl of ligand solution (20 μg/ml protein in HBS-P-Mn buffer at a flow rate of 10 μl/min). Ligand capture levels were typically 200-300 RU. […] Typically, 8 dilutions of 2D-VCAM-1 variant polypeptides ranging from 150 nM to 0.069 nM were analyzed against a blank reference (HBS-P-Mn buffer alone).

T1 sequence (chain, as listed by the source limits assumed, form in doubt, chain 1 of 2): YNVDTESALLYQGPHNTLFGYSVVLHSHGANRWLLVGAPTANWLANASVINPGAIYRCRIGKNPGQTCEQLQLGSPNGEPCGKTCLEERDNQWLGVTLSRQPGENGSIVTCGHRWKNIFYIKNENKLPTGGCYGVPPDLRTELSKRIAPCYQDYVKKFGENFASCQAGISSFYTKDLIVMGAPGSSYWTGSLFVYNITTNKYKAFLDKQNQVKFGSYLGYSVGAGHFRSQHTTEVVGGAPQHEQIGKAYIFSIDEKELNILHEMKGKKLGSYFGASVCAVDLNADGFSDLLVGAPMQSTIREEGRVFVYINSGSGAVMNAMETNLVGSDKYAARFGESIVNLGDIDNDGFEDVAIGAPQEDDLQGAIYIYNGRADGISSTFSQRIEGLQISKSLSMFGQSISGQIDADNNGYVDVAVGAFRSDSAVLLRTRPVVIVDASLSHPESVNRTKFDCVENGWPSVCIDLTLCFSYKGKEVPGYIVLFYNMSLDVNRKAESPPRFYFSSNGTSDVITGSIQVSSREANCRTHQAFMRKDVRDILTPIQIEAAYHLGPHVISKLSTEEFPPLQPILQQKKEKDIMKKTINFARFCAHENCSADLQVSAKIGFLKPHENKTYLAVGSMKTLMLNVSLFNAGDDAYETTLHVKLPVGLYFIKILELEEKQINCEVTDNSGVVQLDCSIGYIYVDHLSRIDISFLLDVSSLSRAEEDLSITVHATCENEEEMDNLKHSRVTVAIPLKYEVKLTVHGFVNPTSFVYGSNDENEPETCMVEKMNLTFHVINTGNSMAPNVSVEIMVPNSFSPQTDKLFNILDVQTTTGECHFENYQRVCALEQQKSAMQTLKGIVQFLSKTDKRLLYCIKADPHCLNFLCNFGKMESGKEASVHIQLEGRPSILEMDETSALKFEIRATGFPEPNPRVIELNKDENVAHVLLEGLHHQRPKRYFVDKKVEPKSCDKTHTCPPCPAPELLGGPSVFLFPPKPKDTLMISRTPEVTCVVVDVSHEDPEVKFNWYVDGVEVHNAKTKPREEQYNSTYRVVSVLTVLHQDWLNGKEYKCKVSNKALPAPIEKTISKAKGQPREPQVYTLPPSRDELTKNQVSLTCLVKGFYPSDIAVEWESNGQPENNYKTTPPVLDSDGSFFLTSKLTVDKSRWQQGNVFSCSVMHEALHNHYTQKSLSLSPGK
T1 sequence (chain, as listed by the source limits assumed, form in doubt, chain 2 of 2): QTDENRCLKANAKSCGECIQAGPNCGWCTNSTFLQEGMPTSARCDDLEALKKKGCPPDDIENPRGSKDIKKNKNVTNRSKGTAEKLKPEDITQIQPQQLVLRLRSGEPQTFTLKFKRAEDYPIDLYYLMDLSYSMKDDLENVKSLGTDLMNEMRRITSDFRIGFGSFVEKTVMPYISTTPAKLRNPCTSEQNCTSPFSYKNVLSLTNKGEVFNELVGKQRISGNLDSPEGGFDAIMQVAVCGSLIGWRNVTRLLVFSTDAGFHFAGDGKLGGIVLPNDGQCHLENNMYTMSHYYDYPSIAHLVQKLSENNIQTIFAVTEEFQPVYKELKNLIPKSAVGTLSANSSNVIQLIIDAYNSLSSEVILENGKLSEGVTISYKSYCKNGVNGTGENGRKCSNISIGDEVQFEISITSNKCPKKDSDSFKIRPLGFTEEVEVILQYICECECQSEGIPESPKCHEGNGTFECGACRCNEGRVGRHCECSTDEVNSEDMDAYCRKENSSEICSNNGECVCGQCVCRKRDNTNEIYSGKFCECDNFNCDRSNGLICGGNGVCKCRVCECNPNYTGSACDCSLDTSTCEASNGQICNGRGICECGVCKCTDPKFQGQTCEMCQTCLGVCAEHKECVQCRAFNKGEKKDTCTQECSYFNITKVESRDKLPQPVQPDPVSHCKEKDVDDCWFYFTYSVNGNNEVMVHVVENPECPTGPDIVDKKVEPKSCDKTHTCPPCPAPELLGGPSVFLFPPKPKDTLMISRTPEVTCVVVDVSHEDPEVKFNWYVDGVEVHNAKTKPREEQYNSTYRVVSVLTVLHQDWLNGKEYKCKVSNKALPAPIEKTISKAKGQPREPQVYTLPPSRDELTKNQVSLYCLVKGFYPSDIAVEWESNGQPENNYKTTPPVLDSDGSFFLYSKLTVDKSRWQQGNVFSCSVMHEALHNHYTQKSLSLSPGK

- Kd [1]: 49.7 pM
- Kd [2]: 18 pM
B1: 2D-VCAM-1 variant Clone 146 (ligand, not shown: small tags and cut ends)
chain: FKIETTPESRYLAQIGDSVSLTCSTTGCESPLFFWRPLLDSPLNGKVTNEGTTSTLTMNPVSFGNEHSYLCTARCESRSLEKGIQVEIYSFPKDPEIHLSGPLEAGKPITVKCSVADVYPFDRLEIDLLKGDHLMKSQEFLEDADRKSLETKSLEVTFTPVIEDIGKVLVCRAKLHIDEMDSVPTVRQAVKELQVYISP

From patent publication US20120135912A1 (PERSEID THERAPEUTICS, published 2012)
